Experiment [1] has as its target rat µ opioid receptor (HA-µOR), stably expressed in HEK293 cells (rat) (UniProt P33535).
Experiment [2] shares this target. The experiment in a line: radioligand binding; competition with 5 nM [3H]-naloxone as tracer; 20 µg total membranes of HEK293-µOR cells in DMEM, 37 °C, 1 h, filtration over GF/C filters; Ki.

From publication PMC12198324 come the findings set out here.

By Ki is commonly meant the equilibrium dissociation constant of an inhibitor or competing ligand from its target. Low readings indicate tighter binding, high ones weaker binding.

UniProt P33535, sequence (P33535 whole entry): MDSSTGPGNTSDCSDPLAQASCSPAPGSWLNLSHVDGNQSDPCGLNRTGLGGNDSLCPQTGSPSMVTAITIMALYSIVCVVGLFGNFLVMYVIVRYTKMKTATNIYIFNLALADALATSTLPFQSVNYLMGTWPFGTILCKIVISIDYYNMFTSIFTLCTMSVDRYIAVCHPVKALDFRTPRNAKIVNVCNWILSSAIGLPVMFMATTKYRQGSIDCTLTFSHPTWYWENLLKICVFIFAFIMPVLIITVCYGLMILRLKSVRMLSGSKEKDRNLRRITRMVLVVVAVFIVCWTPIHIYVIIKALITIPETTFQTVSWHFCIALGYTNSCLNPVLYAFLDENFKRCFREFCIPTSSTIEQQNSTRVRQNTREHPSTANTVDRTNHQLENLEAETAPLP

Regarding endomorphin-1 (peptide), in experiment [1], the ERK-1/2 phosphorylation after 2.5 min in HEK293-µOR cells (western blot), EC50 is 5.8 nM and the inhibition of FSK (10 µM) induced cAMP accumulation in HEK293-µOR cells, EC50 worked out at 4.17 nM. For the same substance, the Ki in experiment [2] was determined as 39.7 nM.
